The text below walks through data of patent US20060024313A1 (published 2006).

One series deals with T1, DPP-IV H750A mutant (human, UniProt P27487 39-766).
T1 construct: range 39-766; also called H750A dimer; H750A monomer
As to the kind of experiment: ADA affinity column purification.

The target in the next series is T2, DPP-IV H750E mutant (human, UniProt P27487 39-766).
T2 construct: range 39-766; Monomeric by AUC
As to the kind of experiment: ADA affinity column purification.

Series [1] deals with the molecule itself. Description: dimer form listed in the table of kinetic constants (self-association).
The series “AUC (self-association)” deals with the molecule itself. As to the kind of experiment: AUC (self-association).

B1: Bovine adenosine deaminase (ADA) (enzyme, UniProt P56658 2-363, looked up)
chain: AQTPAFNKPKVELHVHLDGAIKPETILYYGRKRGIALPADTPEELQNIIGMDKPLSLPEFLAKFDYYMPAIAGCREAVKRIAYEFVEMKAKDGVVYVEVRYSPHLLANSKVEPIPWNQAEGDLTPDEVVSLVNQGLQEGERDFGVKVRSILCCMRHQPSWSSEVVELCKKYREQTVVAIDLAGDETIEGSSLFPGHVKAYAEAVKSGVHRTVHAGEVGSANVVKEAVDTLKTERLGHGYHTLEDATLYNRLRQENMHFEVCPWSSYLTGAWKPDTEHPVVRFKNDQVNYSLNTDDPLIFKSTLDTDYQMTKNEMGFTEEEFKRLNINAAKSSFLPEDEKKELLDLLYKAYGMPSPASAEQCL
modifications: coupled to CNBr-activated Sepharose 4B (affinity column)
For the molecule B1, the binding result with DPP-IV H750A mutant and with DPP-IV H750E mutant was “binds” throughout.

B2: DPP-IV V724A mutant (enzyme, human, UniProt P27487 39-766, looked up)
chain: SRKTYTLTDYLKNTYRLKLYSLRWISDHEYLYKQENNILVFNAEYGNSSVFLENSTFDEFGHSINDYSISPDGQFILLEYNYVKQWRHSYTASYDIYDLNKRQLITEERIPNNTQWVTWSPVGHKLAYVWNNDIYVKIEPNLPSYRITWTGKEDIIYNGITDWVYEEEVFSAYSALWWSPNGTFLAYAQFNDTEVPLIEYSFYSDESLQYPKTVRVPYPKAGAVNPTVKFFVVNTDSLSSVTNATSIQITAPASMLIGDHYLCDVTWATQERISLQWLRRIQNYSVMDICDYDESSGRWNCLVARQHIEMSTTGWVGRFRPSEPHFTLDGNSFYKIISNEEGYRHICYFQIDKKDCTFITKGTWEVIGIEALTSDYLYYISNEYKGMPGGRNLYKIQLSDYTKVTCLSCELNPERCQYYSVSFSKEAKYYQLRCSGPGLPLYTLHSSVNDKGLRVLEDNSALDKMLQNVQMPSKKLDFIILNETKFWYQMILPPHFDKSKKYPLLLDVYAGPCSQKADTVFRLNWATYLASTENIIVASFDGRGSGYQGDKIMHAINRRLGTFEVEDQIEAARQFSKMGFVDNKRIAIWGWSYGGYVTSMVLGSGSGVFKCGIAVAPVSRWEYYDSVYTERYMGLPTPEDNLDHYRNSTVMSRAENFKQVEYLLIHGTADDNVHFQQSAQISKALADVGVDFQAMWYTDEDHGIASSTAHQHIYTHMSHFIKQCFSLP
notes: Mixture of monomers and dimers
Consider B2, for which the binding result in series [1] was “binds”.

B3: DPP-IV F730A mutant (enzyme, human, UniProt P27487 39-766, looked up)
chain: SRKTYTLTDYLKNTYRLKLYSLRWISDHEYLYKQENNILVFNAEYGNSSVFLENSTFDEFGHSINDYSISPDGQFILLEYNYVKQWRHSYTASYDIYDLNKRQLITEERIPNNTQWVTWSPVGHKLAYVWNNDIYVKIEPNLPSYRITWTGKEDIIYNGITDWVYEEEVFSAYSALWWSPNGTFLAYAQFNDTEVPLIEYSFYSDESLQYPKTVRVPYPKAGAVNPTVKFFVVNTDSLSSVTNATSIQITAPASMLIGDHYLCDVTWATQERISLQWLRRIQNYSVMDICDYDESSGRWNCLVARQHIEMSTTGWVGRFRPSEPHFTLDGNSFYKIISNEEGYRHICYFQIDKKDCTFITKGTWEVIGIEALTSDYLYYISNEYKGMPGGRNLYKIQLSDYTKVTCLSCELNPERCQYYSVSFSKEAKYYQLRCSGPGLPLYTLHSSVNDKGLRVLEDNSALDKMLQNVQMPSKKLDFIILNETKFWYQMILPPHFDKSKKYPLLLDVYAGPCSQKADTVFRLNWATYLASTENIIVASFDGRGSGYQGDKIMHAINRRLGTFEVEDQIEAARQFSKMGFVDNKRIAIWGWSYGGYVTSMVLGSGSGVFKCGIAVAPVSRWEYYDSVYTERYMGLPTPEDNLDHYRNSTVMSRAENFKQVEYLLIHGTADDNVHFQQSAQISKALVDVGVDAQAMWYTDEDHGIASSTAHQHIYTHMSHFIKQCFSLP
notes: as for B2
On to B3, for which the binding result in series [1] is reported as “binds”.

B4: DPP-IV Y735A mutant (enzyme, human, UniProt P27487 39-766, looked up)
chain: SRKTYTLTDYLKNTYRLKLYSLRWISDHEYLYKQENNILVFNAEYGNSSVFLENSTFDEFGHSINDYSISPDGQFILLEYNYVKQWRHSYTASYDIYDLNKRQLITEERIPNNTQWVTWSPVGHKLAYVWNNDIYVKIEPNLPSYRITWTGKEDIIYNGITDWVYEEEVFSAYSALWWSPNGTFLAYAQFNDTEVPLIEYSFYSDESLQYPKTVRVPYPKAGAVNPTVKFFVVNTDSLSSVTNATSIQITAPASMLIGDHYLCDVTWATQERISLQWLRRIQNYSVMDICDYDESSGRWNCLVARQHIEMSTTGWVGRFRPSEPHFTLDGNSFYKIISNEEGYRHICYFQIDKKDCTFITKGTWEVIGIEALTSDYLYYISNEYKGMPGGRNLYKIQLSDYTKVTCLSCELNPERCQYYSVSFSKEAKYYQLRCSGPGLPLYTLHSSVNDKGLRVLEDNSALDKMLQNVQMPSKKLDFIILNETKFWYQMILPPHFDKSKKYPLLLDVYAGPCSQKADTVFRLNWATYLASTENIIVASFDGRGSGYQGDKIMHAINRRLGTFEVEDQIEAARQFSKMGFVDNKRIAIWGWSYGGYVTSMVLGSGSGVFKCGIAVAPVSRWEYYDSVYTERYMGLPTPEDNLDHYRNSTVMSRAENFKQVEYLLIHGTADDNVHFQQSAQISKALVDVGVDFQAMWATDEDHGIASSTAHQHIYTHMSHFIKQCFSLP
notes: Monomer by AUC
On to B4, for which, in the series “AUC (self-association)”, the binding result was “no binding”.

B5: DPP-IV Y248A mutant (enzyme, human, UniProt P27487 39-766, looked up)
chain: SRKTYTLTDYLKNTYRLKLYSLRWISDHEYLYKQENNILVFNAEYGNSSVFLENSTFDEFGHSINDYSISPDGQFILLEYNYVKQWRHSYTASYDIYDLNKRQLITEERIPNNTQWVTWSPVGHKLAYVWNNDIYVKIEPNLPSYRITWTGKEDIIYNGITDWVYEEEVFSAYSALWWSPNGTFLAYAQFNDTEVPLIEYSFYSDESLQAPKTVRVPYPKAGAVNPTVKFFVVNTDSLSSVTNATSIQITAPASMLIGDHYLCDVTWATQERISLQWLRRIQNYSVMDICDYDESSGRWNCLVARQHIEMSTTGWVGRFRPSEPHFTLDGNSFYKIISNEEGYRHICYFQIDKKDCTFITKGTWEVIGIEALTSDYLYYISNEYKGMPGGRNLYKIQLSDYTKVTCLSCELNPERCQYYSVSFSKEAKYYQLRCSGPGLPLYTLHSSVNDKGLRVLEDNSALDKMLQNVQMPSKKLDFIILNETKFWYQMILPPHFDKSKKYPLLLDVYAGPCSQKADTVFRLNWATYLASTENIIVASFDGRGSGYQGDKIMHAINRRLGTFEVEDQIEAARQFSKMGFVDNKRIAIWGWSYGGYVTSMVLGSGSGVFKCGIAVAPVSRWEYYDSVYTERYMGLPTPEDNLDHYRNSTVMSRAENFKQVEYLLIHGTADDNVHFQQSAQISKALVDVGVDFQAMWYTDEDHGIASSTAHQHIYTHMSHFIKQCFSLP
notes: Monomer by AUC
Consider B5, for which the binding result in the series “AUC (self-association)” was “no binding”.

B6: DPP-IV F713A mutant (enzyme, human, UniProt P27487 39-766, looked up)
chain: SRKTYTLTDYLKNTYRLKLYSLRWISDHEYLYKQENNILVFNAEYGNSSVFLENSTFDEFGHSINDYSISPDGQFILLEYNYVKQWRHSYTASYDIYDLNKRQLITEERIPNNTQWVTWSPVGHKLAYVWNNDIYVKIEPNLPSYRITWTGKEDIIYNGITDWVYEEEVFSAYSALWWSPNGTFLAYAQFNDTEVPLIEYSFYSDESLQYPKTVRVPYPKAGAVNPTVKFFVVNTDSLSSVTNATSIQITAPASMLIGDHYLCDVTWATQERISLQWLRRIQNYSVMDICDYDESSGRWNCLVARQHIEMSTTGWVGRFRPSEPHFTLDGNSFYKIISNEEGYRHICYFQIDKKDCTFITKGTWEVIGIEALTSDYLYYISNEYKGMPGGRNLYKIQLSDYTKVTCLSCELNPERCQYYSVSFSKEAKYYQLRCSGPGLPLYTLHSSVNDKGLRVLEDNSALDKMLQNVQMPSKKLDFIILNETKFWYQMILPPHFDKSKKYPLLLDVYAGPCSQKADTVFRLNWATYLASTENIIVASFDGRGSGYQGDKIMHAINRRLGTFEVEDQIEAARQFSKMGFVDNKRIAIWGWSYGGYVTSMVLGSGSGVFKCGIAVAPVSRWEYYDSVYTERYMGLPTPEDNLDHYRNSTVMSRAENFKQVEYLLIHGTADDNVHAQQSAQISKALVDVGVDFQAMWYTDEDHGIASSTAHQHIYTHMSHFIKQCFSLP
Regarding B6, in the series “AUC (self-association)”, the binding result is reported as “no binding”.

B7: DPP-IV W734A mutant (enzyme, human, UniProt P27487 39-766, looked up)
chain: SRKTYTLTDYLKNTYRLKLYSLRWISDHEYLYKQENNILVFNAEYGNSSVFLENSTFDEFGHSINDYSISPDGQFILLEYNYVKQWRHSYTASYDIYDLNKRQLITEERIPNNTQWVTWSPVGHKLAYVWNNDIYVKIEPNLPSYRITWTGKEDIIYNGITDWVYEEEVFSAYSALWWSPNGTFLAYAQFNDTEVPLIEYSFYSDESLQYPKTVRVPYPKAGAVNPTVKFFVVNTDSLSSVTNATSIQITAPASMLIGDHYLCDVTWATQERISLQWLRRIQNYSVMDICDYDESSGRWNCLVARQHIEMSTTGWVGRFRPSEPHFTLDGNSFYKIISNEEGYRHICYFQIDKKDCTFITKGTWEVIGIEALTSDYLYYISNEYKGMPGGRNLYKIQLSDYTKVTCLSCELNPERCQYYSVSFSKEAKYYQLRCSGPGLPLYTLHSSVNDKGLRVLEDNSALDKMLQNVQMPSKKLDFIILNETKFWYQMILPPHFDKSKKYPLLLDVYAGPCSQKADTVFRLNWATYLASTENIIVASFDGRGSGYQGDKIMHAINRRLGTFEVEDQIEAARQFSKMGFVDNKRIAIWGWSYGGYVTSMVLGSGSGVFKCGIAVAPVSRWEYYDSVYTERYMGLPTPEDNLDHYRNSTVMSRAENFKQVEYLLIHGTADDNVHFQQSAQISKALVDVGVDFQAMAYTDEDHGIASSTAHQHIYTHMSHFIKQCFSLP
notes: Monomer by AUC
As to B7, the binding result in the series “AUC (self-association)” is “no binding”.

B8: DPP-IV F713R mutant (enzyme, human, UniProt P27487 39-766, looked up)
chain: SRKTYTLTDYLKNTYRLKLYSLRWISDHEYLYKQENNILVFNAEYGNSSVFLENSTFDEFGHSINDYSISPDGQFILLEYNYVKQWRHSYTASYDIYDLNKRQLITEERIPNNTQWVTWSPVGHKLAYVWNNDIYVKIEPNLPSYRITWTGKEDIIYNGITDWVYEEEVFSAYSALWWSPNGTFLAYAQFNDTEVPLIEYSFYSDESLQYPKTVRVPYPKAGAVNPTVKFFVVNTDSLSSVTNATSIQITAPASMLIGDHYLCDVTWATQERISLQWLRRIQNYSVMDICDYDESSGRWNCLVARQHIEMSTTGWVGRFRPSEPHFTLDGNSFYKIISNEEGYRHICYFQIDKKDCTFITKGTWEVIGIEALTSDYLYYISNEYKGMPGGRNLYKIQLSDYTKVTCLSCELNPERCQYYSVSFSKEAKYYQLRCSGPGLPLYTLHSSVNDKGLRVLEDNSALDKMLQNVQMPSKKLDFIILNETKFWYQMILPPHFDKSKKYPLLLDVYAGPCSQKADTVFRLNWATYLASTENIIVASFDGRGSGYQGDKIMHAINRRLGTFEVEDQIEAARQFSKMGFVDNKRIAIWGWSYGGYVTSMVLGSGSGVFKCGIAVAPVSRWEYYDSVYTERYMGLPTPEDNLDHYRNSTVMSRAENFKQVEYLLIHGTADDNVHRQQSAQISKALVDVGVDFQAMWYTDEDHGIASSTAHQHIYTHMSHFIKQCFSLP
Regarding B8, in the series “AUC (self-association)”, the binding result was “no binding”.
